Experiments:
PBMC = test: Primary culture PBMC proliferation (polyclonal response); type: cell-based, human; settings: primary cultures of PBMC
Procedure: Latex specific T cell lines were isolated using our well established methods for the generation of allergen specific oligoclonal T cell populations (O'Hehir et al., 1987). An initial primary culture was performed for each patient to determine the optimal concentration of LAL for stimulation. For this, peripheral blood mononuclear cells (PBMC) separated from heparinised venous blood by density centrifugation (2×10^5/well) were stimulated with LAL over a concentration range 0.03 to 100 μg/ml, with control cultures of PBMC alone or stimulated with tetanus toxoid. All cultures were maintained in complete medium (RPMI-1640, Gibco Life Technologies supplemented with 2 mmol/L L-glutamine, 100 IU/ml penicillin-streptomycin and 5% screened, heat inactivated human AB serum [Sigma]). […] Therefore, to generate T cell lines, PBMC (2.5×10^6/well) were stimulated for 1 week with LAL at a concentration of 20 μg/ml in 24-well tissue culture plates (Costar, USA). After 7 days, lymphoblasts (1×10^6/well) were restimulated for one week with LAL at a concentration of 20 μg/ml in the presence of an equal number of irradiated (3000 rad) autologous PBMC as antigen presenting cells (APC). On days 2 and 4, cultures were supplemented with Lymphocult-T (5% v/v; Biotest Folex, Germany) and fresh medium. […]

[1] = tested on: latex specific T cell lines; test: Oligoclonal T cell proliferation assay (3H-thymidine incorporation); type: cell-based, human; settings: for Oligoclonal proliferative response: antigen 10 μg/ml, 4 day cultures
Procedure: Latex specific T cell lines were isolated using our well established methods for the generation of allergen specific oligoclonal T cell populations (O'Hehir et al., 1987). An initial primary culture was performed for each patient to determine the optimal concentration of LAL for stimulation. For this, peripheral blood mononuclear cells (PBMC) separated from heparinised venous blood by density centrifugation (2×10^5/well) were stimulated with LAL over a concentration range 0.03 to 100 μg/ml, with control cultures of PBMC alone or stimulated with tetanus toxoid. All cultures were maintained in complete medium (RPMI-1640, Gibco Life Technologies supplemented with 2 mmol/L L-glutamine, 100 IU/ml penicillin-streptomycin and 5% screened, heat inactivated human AB serum [Sigma]). […] Therefore, to generate T cell lines, PBMC (2.5×10^6/well) were stimulated for 1 week with LAL at a concentration of 20 μg/ml in 24-well tissue culture plates (Costar, USA). After 7 days, lymphoblasts (1×10^6/well) were restimulated for one week with LAL at a concentration of 20 μg/ml in the presence of an equal number of irradiated (3000 rad) autologous PBMC as antigen presenting cells (APC). On days 2 and 4, cultures were supplemented with Lymphocult-T (5% v/v; Biotest Folex, Germany) and fresh medium. At the end of the second week, lymphoblasts were restimulated for one week with rhev b 5/MBP at a concentration of 20 μg/ml as described above. Oligoclonal T cells were recovered, washed and tested in proliferation and cytokine assays (as described below) either fresh or after cryopreservation in liquid nitrogen. We have previously shown that CD4^+ T cells are preferentially expanded in these cultures.
Oligoclonal T cell blasts (5×10^4) were incubated in 96-well round bottom plates (Linbro, ICN Biomedicals, USA) in triplicate with equal numbers of irradiated APC in the presence of LAL at concentrations ranging from 0.03-100 μg/ml, rHev b 5/MBP (10 and 20 μg/ml), MBP (10 and 20 μg/ml), overlapping peptides of the Hev b 5 sequence (10 and 30 μg/ml), Lymphocult-T (10 IU/ml) or PHA (3 μg/ml). Cultures of T cells and APC in the absence of antigen, T cells alone and APC alone in the absence of antigen were included as controls. After 72 hours cultures were pulsed with 1 μCi of ^3H-thymidine (^3HTdR; Du Pont, NEN) and harvested 12-16 hours later. Proliferation as correlated with ^3HTdR incorporation was measured by liquid scintillation spectroscopy. Results are expressed as mean counts per minute (cpm) for triplicate cultures with standard deviation (SD; ±20% for all experiments).

serum IgE = test: Dot immunoblot of patient serum IgE reactivity; type: binding, human; settings: sera of latex allergic patients 1-6
Procedure: Patient serum IgE reactivity to latex allergens was analysed by dot immunoblots. LAL (25 μg), rHev b 5/MBP (7 μg) and MBP (4.5 μg) were applied side by side on a nitrocellulose membrane (Schleichner and Schuell, Germany) in a 5 μl volume and allowed to soak in. The amount of MBP was estimated to be equivalent to that in the rHev b 5/MBP aliquot. The membrane was then blocked, incubated in patient sera and IgE binding detected according to our established protocols (Suphioglu et al., 1993). Briefly, the blots were blocked in 10% w/v skim milk powder in PBS and washed once in PBS containing 0.2% v/v Tween 20 and twice in PBS alone. Blots were then incubated in patients' sera (diluted 1:4 in PBS/0.5% BSA) overnight at room temperature with shaking before washing as described above. Finally, IgE antibody binding was detected by incubation in rabbit anti-human IgE (Dako, Denmark) followed by horse radish peroxidase-labelled anti-rabbit antibodies (Promega, USA), washing in between, and developing in the substrate 4-chloro-1-napthol (Sigma) after the final wash.

[2] = tested on: house dust mite specific three-week T cell line; type: cell-based
Procedure: Mitogenicity of latex antigens was excluded by testing the ability of LAL, rHev b 5/mBP and Hev b 5 peptides to stimulate a house dust mite specific three-week T cell line. No reactivity to latex allergens was observed (data not shown). Toxicity was assessed by coculturing the same antigens with house dust mite specific T cells in the presence of Lymphocult-T at 10 IU/ml.

[3] = Immune response of mice immunised with rHev b 5/MBP (serum ELISA); type: in vivo, BALB/c mice; settings: 20 μg/injection IP; serum ELISA against rHev b 5/MBP, MBP and NAL
Procedure: Monoclonal antibody production was carried out based on the method of Köhler and Milstein (Köhler et al., 1975) according to established protocols (Goding, 1996). Six to 8 week old female BALB/c mice were immunised intraperitoneally (IP) with 20 μg/injection of rHev b 5/MBP diluted in 200 μl of phosphate buffered saline (PBS). The first injection was given with an equal volume (200 μl) of Complete Freund's Adjuvant (Sigma, USA), and the second with 200 μl of Incomplete Freund's Adjuvant (Sigma, USA). The subsequent 4 immunisations were given in phosphate buffered saline (PBS) alone. The initial 2 immunisations were given at a 2 weekly interval; the remainder were given at monthly intervals, with 100 μl of whole blood being taken before the first immunisation and at 5 days following each immunisation (except for the first) to monitor the immune response. The blood was then centrifuged, the serum removed, and aliquotted at −20° C. for later analysis using enzyme linked immunosorbent assay (ELISA) as below. The final booster immunisation of 20 μg of rHev b 5/MBP in 200 μl PBS was given IP 3 days before the mouse was humanly killed and the spleen aseptically removed, macerated and then fused with 10^7 murine myeloma cells (X-63.Ag8 cell line, generous gift of Professor Jim Goding). […] Colour development was then observed and the plate read at […]. […]

B1: rHev b 5/MBP: recombinant Hev b 5 as maltose binding protein (MBP) fusion protein (protein)
chain: ASVEVESAATALPKNETPEVTKAEETKTEEPAAPPASEQETADATPEKEEPTAAPAEPEAPAPETEKAEEVEKIEKTEEPAPEADQTTPEEKPAEPEPVAEEEPKHETKETETEAPAAPAEGEKPAEEEKPITEAAETATTEVPVEKTEE
modifications: left off: large carriers; small tags and cut ends
polyclonal PBMC response (in words) (PBMC): considerably less than those to LAL | Oligoclonal proliferative response ([1]; P1 T cell line): 9.0 counts per minute × 10^−3 | Oligoclonal proliferative response ([1]; P2 T cell line): 5.7 counts per minute × 10^−3 | oligoclonal proliferative response (in words) ([1]; three-week latex specific T cell lines): significantly higher than those of MBP alone | serum IgE reactivity (serum IgE): patients 1, 2, 3, 4 and 5 showed IgE reactivity | mitogenicity: stimulation of house dust mite specific T cell line [2]: No reactivity | immune response of immunised mice [3]: strong polyclonal immune response
